Columns and labels:
MS2 coat protein [1] = assay: apparent KD of MS2 coat protein, switch ON state; designed switch direction (-1 OFF switch, 1 ON switch): 1; higher = weaker reporter binding; conditions: FMN input: 0 or 200 uM; Eterna round: R93 (includes R88 designs)
How it was run: (§1)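 Titration buffer: 100 mM Tris-HCl pH 7.5, 80 mM KCl, 4 mM MgCl2, without or with constant ligand. Designed RNA switches transcribed on-chip from Illumina sequencing clusters received SNAP-549-labelled MS2 coat protein in twofold steps from 0.7 or 1.5 nM to 3 µM. Apparent KD is the median per design of fits to normalised cluster binding curves.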

MS2 coat protein [2] = assay: apparent KD of MS2 coat protein, switch OFF state (with FMN for OFF switches, without FMN for ON switches); designed switch direction (-1 OFF switch, 1 ON switch): 1; higher = weaker reporter binding; conditions: FMN input: 0 or 200 uM; Eterna round: R93 (includes R88 designs)
How it was run: as §1

| Sequence | apparent KD of MS2 coat protein (MS2 coat protein [1]) | apparent KD of MS2 coat protein (MS2 coat protein [2]) |
| --- | --- | --- |
| AAAAAACAUGAGGAUCACCCAUGUAACACUCAUGUAGGAUAUACAAAAAAAAAAAAAAAAGUAGAAGGACAAAAAA [Omei A variation 3] | 0.143 µM | 0.293 µM |
| AGACAUAACAGAGAGGAUAUCCAAUAGAAAACAUGAGGAUCACCCAUGUGAAAGAAAAUAAAAUGGGAGAAGGCUCACAUACAGA [Topaz 39] | 0.00557 µM | 0.023 µM |
| GAAAAACAUGAGGAUCACCCAUGUCGAGAGAGACGAGGAUAUCUGAAUCGAUUAGAUUACGGAGAAGGCGUGAAAG [Mat - Same State 1 - Hyphema mod - D96] | 0.0203 µM | 0.0258 µM |
| AUGGUGCAGGUACAGGAUAUGUUGCUCGUAACAUGAGGAUCACCCAUGUACCUAUGAGAUUAAAUGCAGAAGGGUGCACACCACG [Quorra] | 0.0435 µM | 1.48 µM |
| AUGAAUAGCAUCGAGGAUAUCCAGUCAUGCACAUGAGGAUCACCCAUGUAAGAGAGAGUAUAAUGGGAGAAGGCGAGUACUCGAU [JR_SS002_Sub1704] | 0.082 µM | 0.0694 µM |
| AGAAAACAUGAGGAUCACCCAUGUAGAAAUAUGGGAGGAUAUACAAAGACGAAAGUCAAAGUAGAAGGCCUAAAGA [Mat - Same State 1 - Eli mod - 33] | 0.019 µM | 0.0719 µM |
| AACAAUCUAUCUGAGGAUAUCAUGUAAAAGACAUGAGGAUCACCCAUGUAGCAGGAAACUGCAUAUGAGAAGGCAGAUAGAUUGA [SS2: 1120] | 0.0184 µM | 0.0213 µM |
| AGGAGACAUGAGGAUCACCCAUGUGAGAAGAGGCGAGGAUAUCGAAAGAAAGAAGAGAAACGAGAAGGCGCGAGAU [salish99-SS1-021] | 0.0251 µM | 0.0387 µM |
| AGACAUAAAAGAGAGGAUAUCCAAAAGAAAACAUGAGGAUCACCCAUGUAAAAGAAAAUAAAAUGGGAGAAGGCUCACAUACAGA [Topaz 35] | 0.019 µM | 0.0504 µM |
| AAAAAGUGAUGGUAGGAUAUUGGAAAAGCCACAUGAGGAUCACCCAUGUCAAAAAACCUAAAAAACAAGAAGGGCUGUUAUAAAAA [Same State 2.2] | 0.0186 µM | 0.0247 µM |
| CUGGACAUAGUAUAGGAUAUAUGAAUAGUUACAUGAGGAUCACCCAUGUGCAUUUAUAUGCGAACAUAGAAGGGUGGUAGUUAAG [Mat - Same state - Malcolm Mod - D141] | 0.0884 µM | 0.0484 µM |
| UAACUACAUGAGGAUCACCCAUGUCUCCAGGGUCAAGGAUAUGGGCGUAGACAAACUACACCAGAAGGUGAUCCAA [Rireenon] | 0.156 µM | 0.307 µM |
| AAAAAACAUGAGGAUCACCCAUGUGAAAAUAUGGGAGGAUAUCAUGGAAAAAAAAAAACAUGAGAAGGCCCAGAAA [SS! 1 MT 11] | 0.0137 µM | 0.0671 µM |
| GAGAGACAUGAGGAUCACCCAUGUAGGAUUAUGGGAGGAUAUACAAAGACGAGAGUCAGAGUAGAAGGCCUAGGAU [salish99-ss1-138(!)] | 0.0212 µM | 0.0549 µM |
| AAGAAACAUGAGGAUCACCCAUGUACCCAAAACGGAGGAUAUGGGAAAGAAAGAAAGAAACCAGAAGGCCGAUGAA [Amyrtaeus] | 0.0259 µM | 0.0888 µM |
| CCGAUGGUAUACUAGGAUAUGGGCGCCCUUACAUGAGGAUCACCCAUGUUUACACAAAUCCGCGGCCAGAAGGAGUUCAUGGGAG [Orgere] | 0.0903 µM | 0.163 µM |
| UAUUAUUACACGAAGGAUAUCGAUAAUAGUACAUGAGGAUCACCCAUGUUCAUAUCAUUUUAGUUCGAGAAGGUCGAGGGUGAAG [JR_SS002_Sub709] | 0.0239 µM | 0.0201 µM |
| ACCCGCAGCCGUCAGGAUAUGUUCGCGUCAACAUGAGGAUCACCCAUGUGUGACAAGAAGUACACGCAGAAGGGAUCAAUGCGGG [Bienri] | 0.0137 µM | 0.0164 µM |
| GAAAAACAUGAGGAUCACCCAUGUAGAAAUAUGGGAGGAUAUACAAACUCGAAAGUCAAAGUAGAAGGCCUAAAAG [Garnet 29] | 0.107 µM | 0.224 µM |
| CGAGUACAUGAGGAUCACCCAUGUUAUGAAUUGUCAGGAUAUGGAUAAAGGUGACAUGCGCCAGAAGGGACGUAUG [JR_SS001_Sub1006] | 0.0369 µM | 0.0437 µM |
| AAACCACAUGAGGAUCACCCAUGUAAAAAUAUGGGAGGAUAUACUAGAAGAAACAAAAUAGUAGAAGGCCUAAAAA [75%, Ex sub1, 28] | 0.0336 µM | 0.0781 µM |
| AUAUGAUCAUGUGAGGAUAUCCAUAAUAAAACAUGAGGAUCACCCAUGUAUAGAUAAUAAUAAUGGGAGAAGGCACAUGAUCAAU [SS 2 M41] | 0.0216 µM | 0.0179 µM |

| Sequence | apparent KD of MS2 coat protein (MS2 coat protein [1]) | apparent KD of MS2 coat protein (MS2 coat protein [2]) |
| --- | --- | --- |
| AAAAAACAUGAGGAUCACCCAUGUCUUCGGACAUGAGGAUAUGUACAGACUUCGGUCUGUACAGAAGGCAUGAAAA [SS1 - 1013] | 0.256 µM | 0.0395 µM |
| AGGAAACAUGAGGAUCACCCAUGUAAAAAUAACACAGGAUAUGGAAACACGAAAGUGAAACCAGAAGGGUGAAAAG [77%, Mat - Mod of Eli, 16] | 0.0178 µM | 0.0261 µM |
| AAAAAACAUGAGGAUCACCCAUGUGCAAAAUUCGCAGGAUAUUUCUCAAUUAAAUGAGAGGAAGAAGGGUGACAAA [Nob's Hobby 28 - Jieux - Same State 1] | 0.0959 µM | 0.0553 µM |
| CAAACAACAGCACAGGAUAUCCAUAUAAUAACAUGAGGAUCACCCAUGUAAGCGGAAAAUAACGCGGAGAAGGGUGAACACACAA [Default title] | 0.13 µM | 0.0351 µM |
| GAAAAACAUGAGGAUCACCCAUGUAGAAACUAGGGAGGAUAUACUAAGACGAAAGUCGAAGUAGAAGGCCUUUAAA [Same State 1.4m (Mat - Mod of Eli - )] | 0.0142 µM | 0.0147 µM |
| AGAAAACAUGAGGAUCACCCAUGUAGAAAUAUGGGAGGAUAUACAAGGACGAAAGUCAAGGUAGAAGGCCUAAAGA [Mat - Same State 1 - Meechl mod - D127] | 0.0228 µM | 0.0884 µM |
| AAGCAACAUGAGGAUCACCCAUGUAGCAGGGUCAGAGGAUAUUUGAUCUUGGUAAGGGUUAAAGAAGGUUGAUAAA [Ceralete] | 0.159 µM | 0.0911 µM |
| AUUCCAAAUAGUCAGGAUAUCAAAAAUAAGACAUGAGGAUCACCCAUGUACUUAGUAAAAGUAAAUGAGAAGGGACAGGGUGUAA [JR_SS002_Sub404] | 0.0129 µM | 0.0194 µM |
| GAAAAACAUGAGGAUCACCCAUGUGAAAACUUGGGAGGAUAUACAAAGACGAAAGUCGAAGUAGAAGGCCUAAAAG [Same State 1.4k (Mat - Mod of Eli - )] | 0.0172 µM | 0.106 µM |
| AACAAUCUAUCUGAGGAUAUGUGUCAAAAGACAUGAGGAUCACCCAUGUAAAAACAUGGAAAAACACAGAAGGCAGAUAGAUUGA [SS2: 1149] | 0.0621 µM | 0.0754 µM |
| GAAAAACAUGAGGAUCACCCAUGUGGAAAUAUGGGAGGAUAUACUAAGACGAAAGUCGAUGUAGAAGGCCUAAAAG [Same State 1.4e (Mat - Mod of Eli - )] | 0.022 µM | 0.0829 µM |
| AAUAUAUUAAGUGAGGAUAUCAAGAAAAAAACAUGAGGAUCACCCAUGUGGGAAACAUGGUAGGGUGAGAAGGUACUUAAUAUAU [Samwise Clockwise 21 - Jieux - Same State 2] | 0.228 µM | 0.691 µM |
| AAGAAAGAAACAUAGGAUAUCAAGAAUAUAACAUGAGGAUCACCCAUGUAAAUACGAAAGUAUAAUGAGAAGGAUGGAUGAUCUUC [Mat - Mod of Meechl] | 0.0243 µM | 0.0345 µM |
| AAAAAACAUGAGGAUCACCCAUGUGCAAAAUUCGCAGGAUAUUCCUCAAUUAAAUGAAAGGAAGAAGGGUGACAAA [Nob's Hobby 30 - Jieux - Same State 1] | 0.0926 µM | 0.253 µM |
| AUAACACAUGAGGAUCACCCAUGUAGAAACAAGUCAGGAUAUGCAACCUCAUGAAAUAAAGCAGAAGGGACAAUAA [SS 1 Tesla 4] | 0.0264 µM | 0.088 µM |
| AUGGUCAAGUGUGAGGAUAUCCAGGCUCCCACAUGAGGAUCACCCAUGUUUAUUAGAGCGUAAAGGGAGAAGGUACGAACGCCAU [Esbibiti] | 0.0156 µM | 0.0269 µM |
| AAAAAACAUGAGGAUCACCCAUGUCAAAAGACAUGAGGAUAUGUACAGACUUCGGUCUGUACAGAAGGCAUGAAAA [SS1 - 1011] | 0.0316 µM | 0.524 µM |
| AAAAAAAAAGUAGAGGAUAUCCAAAUGGCUACAUGAGGAUCACCCAUGUGAAGAAAAGCACAUGAGGAGAAGGCUACAAAAAAAAA [Blender bender] | 0.0121 µM | 0.0217 µM |
| AAAAAACAUGAGGAUCACCCAUGUGAGAACAUGGGAGGAUAUACGAGGACGAGAGUCAGAGUAGAAGGCCUAAAAA [Garnet 66] | 0.161 µM | 0.0517 µM |
| AAGAAACAUGAGGAUCACCCAUGUGAAAUAAACACAGGAUAUGCGAAAAGAAACAAAGAAGCAGAAGGGUGAAGAA [Mat - Same State 1 - Tesla mod - 57] | 0.0151 µM | 0.0441 µM |
| AAAAAACAUGAGGAUCACCCAUGUGACAACAUGGGAGGAUAUACGAAGACGAGAGUCGAAGUAGAAGGCCUAAAAG [Garnet 78] | 0.117 µM | 0.0653 µM |
